Biological target: T1, c-AMP-dependent protein kinase A (PKA) (Bos taurus, UniProt P00517)
T1 construct: purified c-AMP-dependent protein kinase A (PKA, Promega) from bovine heart; purchased Promega; host or cells: bovine heart (tissue-purified)
Test: PKA activity assay (GSK-3 substrate phosphorylation)
Type: biochemical, bovine
Details: Aβ 10 μM, PKA 2U
Method: Recombinant Phosphatase and Tensin Homolog (PTEN; R & D Systems, Minneapolis, Minn.), purified PP2A from human erythrocytes (Upstate, Temecula, Calif.), and purified c-AMP-dependent protein kinase A (PKA, Promega) from bovine heart were stored at −20 and used freshly. PKA inhibitor (PKI, Biosource) and PI3K inhibitor, LY294002 (Cell Signaling) were diluted to 20 or 10 μM in kinase buffer. Antibodies used were: anti-cdk4 (polyclonal), Akt, Actin (polyclonal), and IRa (polyclonal) (Santa Cruz); p-Akt (polyclonal; Ser473 and Thr308), p-GSK-3α/0 (polyclonal; Ser21/9), GSK-30 (polyclonal), IRP (monoclonal), p-Tyrosine (monoclonal), and p-PDK (polyclonal, Ser241) (Cell Signaling, Danvers, Mass.); IRS-1 (monoclonal) and PDK (monoclonal) (BD Biosciences); PI3K (polyclonal, p85) and SGK (polyclonal) (Upstate, Temecula, Calif.); Rictor (polyclonal) (Bethyl Laboratories, Montgomery, Tex.); 6E10 (monoclonal; Covance Co.); R1282 (polyclonal; gift from Dr. Selkoe's lab). Phospholipase A2 (PLA2) was from Sigma. The lipids phosphatidylinositol-tris-3,4,5-phosphate, dipalmitoyl, (PIP3) (Matreya LLC, Pleasant Gap, Pa.), and D-myo-Phosphatidylinositol (PtdIns; PI) (Echelon, Salt Lake City, Utah) were diluted into water or CHCl3:MeOH:H2O (1:2:0.8), aliquoted into 100 μg vials and stored at −20° C. […]

Q: With “Aβ42: synthetic 42 amino acid β-amyloid peptide, forward sequence, freshly prepared, predominantly monomeric (BioSource)” as the substance, how does the “PKA phosphorylation of GSK-3 α/β substrate” value read?
A: Its value is “not inhibited”.

From US9618511B2, “Methods and compositions for treating alzheimer's disease” (Eleanore Bennett Charitable Trust #2, priority 2008, dated 2017)
